The values below come from patent US20260207766A1 (Bristol-Myers Squibb, published 2026).

Experiment [1] concerns the target T1, human CEACAM1 on CHO-S cells (human, UniProt P13688 35-526).
T1 construct: whole, on cells; also called CHO-S-huCEACAM1
T1 sequence (looked up): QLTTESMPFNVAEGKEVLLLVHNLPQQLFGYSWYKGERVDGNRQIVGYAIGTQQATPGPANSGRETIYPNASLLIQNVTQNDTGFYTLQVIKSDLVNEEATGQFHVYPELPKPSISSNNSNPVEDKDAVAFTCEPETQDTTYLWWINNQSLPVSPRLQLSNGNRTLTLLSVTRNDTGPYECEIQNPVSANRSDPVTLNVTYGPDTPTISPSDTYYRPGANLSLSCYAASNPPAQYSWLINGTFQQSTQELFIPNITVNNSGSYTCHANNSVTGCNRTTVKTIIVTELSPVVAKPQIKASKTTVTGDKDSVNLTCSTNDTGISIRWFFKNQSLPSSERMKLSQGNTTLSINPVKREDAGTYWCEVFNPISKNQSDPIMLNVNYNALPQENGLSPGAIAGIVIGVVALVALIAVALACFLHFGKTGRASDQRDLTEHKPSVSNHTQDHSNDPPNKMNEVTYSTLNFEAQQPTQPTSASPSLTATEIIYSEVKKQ
Briefly: flow cytometry, CHO-S cells overexpressing human CEACAM1.

The target in experiment [2] is T2, human CEACAM5 on cells (human, UniProt P06731 35-685).
T2 construct: Endogenous on MKN45, Ls174T, BxPC-3; overexpressed on HCT116; also called huCEACAM5; HCT116-huCEACAM5
T2 sequence: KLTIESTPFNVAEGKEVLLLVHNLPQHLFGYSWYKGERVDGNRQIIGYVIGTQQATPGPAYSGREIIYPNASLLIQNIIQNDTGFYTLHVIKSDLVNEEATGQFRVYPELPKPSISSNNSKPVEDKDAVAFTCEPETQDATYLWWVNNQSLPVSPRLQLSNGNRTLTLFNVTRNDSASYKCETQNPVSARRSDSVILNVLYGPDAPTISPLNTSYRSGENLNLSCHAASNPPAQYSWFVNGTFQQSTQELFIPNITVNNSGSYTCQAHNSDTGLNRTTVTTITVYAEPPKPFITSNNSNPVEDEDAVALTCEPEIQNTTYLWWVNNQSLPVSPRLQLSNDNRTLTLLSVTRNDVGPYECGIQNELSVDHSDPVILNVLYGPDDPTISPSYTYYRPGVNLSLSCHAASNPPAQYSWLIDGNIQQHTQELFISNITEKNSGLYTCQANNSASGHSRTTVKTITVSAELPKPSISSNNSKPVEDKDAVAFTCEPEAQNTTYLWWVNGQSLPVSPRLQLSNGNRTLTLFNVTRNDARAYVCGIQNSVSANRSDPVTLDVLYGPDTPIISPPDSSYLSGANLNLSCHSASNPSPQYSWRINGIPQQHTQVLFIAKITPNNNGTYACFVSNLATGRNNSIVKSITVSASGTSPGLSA
Briefly: cell binding, MKN45 cells.

The target in experiment [3] is T2, human CEACAM5 on cells. Briefly: FACS on LS174T cells.
Experiment [4] addresses T2, human CEACAM5 on cells. In words: FACS on BxPC3 cells.
Experiment [5] addresses T3, 6xHis-A3-B3 huCEACAM5 (human, UniProt P06731 501-685, N-linked glycans (seven predicted sites)).
T3 construct: For cryo-EM it was expressed in Expi293F GnTI- cells; also called hCEACAM5-A3-B3 construct; human CEACAM5 A3-B3 domain protein
T3 sequence: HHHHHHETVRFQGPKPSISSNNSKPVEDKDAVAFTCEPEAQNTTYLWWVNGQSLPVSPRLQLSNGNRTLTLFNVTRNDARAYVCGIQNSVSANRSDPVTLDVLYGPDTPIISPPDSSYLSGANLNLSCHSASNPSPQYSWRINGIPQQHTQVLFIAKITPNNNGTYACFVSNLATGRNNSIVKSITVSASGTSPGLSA
In words: SPR Biacore 8K 37C, mAb captured on anti-human Fc, antigen analyte, 1:1 Langmuir fit.
Procedure: SPR analyses were conducted at 37° C. using a Biacore 8K instrument primed with 1×HBSP+ running water and docked with a CM5 sensor chip equilibrated to room temperature, followed by re-priming of the instrument. The chip surface was activated by injecting an ethyl(dimethylaminopropyl) carbodiimide (EDC)/N-hydroxysuccinimide (NHS) mixture for 7 minutes at 10 μL/min. The activated chip surface was then immobilized with an anti-human Fc capture reagent (at 25 μg/mL in acetate pH 5 buffer) injected on the chip surface for 7 minutes at 10 μL/min to yield an immobilization level of about 9000 RU. The remaining chip surface was blocked by injecting ethanolamine for 7 minutes at 10 μL/min.
The kinetic data for anti-CEACAM5 mAb:CEACAM5 binding were fit to a 1:1 Langmuir binding with Rmax to provide estimates of the kinetic and affinity values for the corresponding interactions.

For experiment [6], the target named is T2, human CEACAM5 on cells. Briefly: FACS on MKN45 cells.
Experiment [7] concerns the target T4, human CEACAM6 on HCT116 cells (human, UniProt P40199 35-320).
T4 construct: whole, on cells; also called HCT116-huCEACAM6
T4 sequence (looked up): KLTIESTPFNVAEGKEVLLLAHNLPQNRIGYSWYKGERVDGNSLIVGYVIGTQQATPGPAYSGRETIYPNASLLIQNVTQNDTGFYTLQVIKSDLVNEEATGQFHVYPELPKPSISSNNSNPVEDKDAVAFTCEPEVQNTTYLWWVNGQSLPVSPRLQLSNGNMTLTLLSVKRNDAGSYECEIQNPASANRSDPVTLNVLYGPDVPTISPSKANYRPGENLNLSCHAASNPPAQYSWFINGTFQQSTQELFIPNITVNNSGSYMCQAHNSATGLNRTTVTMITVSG
In words: flow cytometry on HCT-116 (CEACAM-6) cells.

In experiment [8] the target is T3, 6xHis-A3-B3 huCEACAM5. Briefly: cryo-EM of CEACAM5 A3-B3 with both Fabs. The method, then: Below is a description of the different steps and methods that were performed.
After the incubation period, 50 μl of complexing reaction solution was passed through a Bio-Spin 30 Size-exclusion chromatography column (30 kDa MWCO, BioRad) to remove any contaminants and Apo-CEACAM5. Prior to use, Bio-Spin 30 columns were equilibrated with 1×PBS, and samples were applied according to the manufacturer's protocol.

B1: MBN001 (antibody, V domains shown)
VH: QVQLVETGGGVVQPGRSLRLSCAASGITFSSHGMHWVRQSPGKGLEWVTFISYDGSYKSYVDSVKGRFAISRDNSKNTLYLQMNSLRPEDTAVYYCATGLTGTGAFDIWGQGTMVTVSS
VL: not shown
notes: also called mAb MBN001; MBN001 parent
As to B1, the binding result in experiment [1] is recorded as “no binding”; in experiment [7], “no binding (tested: 300 nM)”. In addition, the EC50 with human CEACAM5 on cells [2] was 33.8 nM; in the experiment with human CEACAM5 on cells [3], 1.7 nM; with human CEACAM5 on cells [4] it was 1.8 nM; with human CEACAM5 on cells [6], 2.2 nM. Further, in the experiment with 6xHis-A3-B3 huCEACAM5 [5], the Kd is 129 nM.

B2: Fab of bin 2 mAb (Fab, V domains shown)
VH: QVQLQESGPGLVKPSGTLSLTCAVSGGSISSSDWWSWVRQPPGKGLEWIGEIYHQGSTNYNPSLKSRVTISVDKSKNQFSLKLSSVTAADTAVYYCARASSSGYYGHDVWGQGTTVTVSS
VL: DIQLTQSPSFLSASVGDRVTITCRASQGISTYLAWYQQKPGKAPKFLIYAEKTLQSGVPSRFSGSGSGTEFTLTISSLQPEDFATYYCQQLASYPFTFGPGTKVDIKR
notes: also called anti-CEACAM5 bin2 mAb Fab
In the case of B2, in the experiment with 6xHis-A3-B3 huCEACAM5 [8], the binding result is reported as “binds”.
